This series addresses T1, DNA polymerase kappa catalytic core (Polκ19-526) (human, UniProt Q9UBT6 19-526).
T1 sequence: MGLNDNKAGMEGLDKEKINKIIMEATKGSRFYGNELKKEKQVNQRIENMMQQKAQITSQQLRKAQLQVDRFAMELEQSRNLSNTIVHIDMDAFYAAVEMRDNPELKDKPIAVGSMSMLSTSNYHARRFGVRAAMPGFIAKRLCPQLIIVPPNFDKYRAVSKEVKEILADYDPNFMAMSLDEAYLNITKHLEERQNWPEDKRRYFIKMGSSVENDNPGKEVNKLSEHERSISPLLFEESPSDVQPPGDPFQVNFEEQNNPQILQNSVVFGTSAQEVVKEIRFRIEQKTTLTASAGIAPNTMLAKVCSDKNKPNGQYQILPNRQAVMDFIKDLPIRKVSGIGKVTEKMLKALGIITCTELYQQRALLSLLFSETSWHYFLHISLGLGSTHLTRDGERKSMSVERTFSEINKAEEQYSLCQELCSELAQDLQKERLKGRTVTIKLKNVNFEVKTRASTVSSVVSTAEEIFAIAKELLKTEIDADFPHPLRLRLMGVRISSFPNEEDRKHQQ
In words: X-ray crystallography.

B1: 13-nt/18-nt primer/template with cis-syn T-T dimer (dsDNA)
DNA 1: TTCCTTGGTCCTTCCCCC
DNA 2: GGGGGAAGGACCA
modifications: cis-syn cyclobutane thymine dimer in template (T5-T6, position from pairing with primer); 3'-terminal dideoxyadenosine on primer
Take B1: the binding result is given as “binds”.

These data come from PMC3093752.
